Measured values: article doi:10.1101/2020.01.13.905216 (bioRxiv, 2020)

Molecular target: the molecule itself
Assay: cryo-EM structure

B1: Thermophilic Factor 55 β subunit (TF55β) chaperonin complex from Sulfolobus solfataricus (natural protein, S. solfataricus, UniProt Q9V2T8 1-554, looked up)
chain: MATATVATTPEGIPVIILKEGSSRTYGKEALRANIAAVKAIEEALKSTYGPRGMDKMLVDSLGDITITNDGATILDKMDLQHPTGKLLVQIAKGQDEETADGTKTAVILAGELAKKAEDLLYKEIHPTIIVSGYKKAEEIALKTIQEIAQPVTINDTDVLRKVALTSLGSKAVAGAREYLADLVVKAVAQVAELRGDKWYVDLDNVQIVKKHGGSVNDTQLVYGIVVDKEVVHPGMPKRIENAKIALLDASLEVEKPELDAEIRINDPTQMHKFLEEEENILKEKVDKIAATGANVVICQKGIDEVAQHYLAKKGILAVRRAKKSDLEKLARATGGRVISNIDELTSQDLGYAALVEERKVGEDKMVFVEGAKNPKSVSILIRGGLERVVDETERALRDALGTVADVIRDGRAVAGGGAVEIEIAKRLRKYAPQVGGKEQLAIEAYANAIEGLIMILAENAGLDPIDKLMQLRSLHENETNKWYGLNLFTGNPEDMWKLGVIEPALVKMNAVKAATEAVTLVLRIDDIVAAGKKSGSEPSGKKEKDKEEKSSED
stoichiometry N: 18
